Decrease in CXCL1 production by MLE-12 cells induced by 200 ng/ml mIL-17F/IL-17A with 80 µg/ml antibody data for one substance are collected here from patent publication US20080241130A1.

The test concerns the target mouse IL-17F/IL-17A heterodimer (mouse). The test can be described thus: cell-based or functional assay.

Chain of mouse IL-17F/IL-17A heterodimer (mouse) (Q62386 26-158, chain 1 of 2): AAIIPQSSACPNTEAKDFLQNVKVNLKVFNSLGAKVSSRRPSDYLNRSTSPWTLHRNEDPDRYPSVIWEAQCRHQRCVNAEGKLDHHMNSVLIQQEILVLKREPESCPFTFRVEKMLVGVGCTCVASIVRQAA
Chain of mouse IL-17F/IL-17A heterodimer (mouse) (Q7TNI7 29-161, chain 2 of 2, further chain): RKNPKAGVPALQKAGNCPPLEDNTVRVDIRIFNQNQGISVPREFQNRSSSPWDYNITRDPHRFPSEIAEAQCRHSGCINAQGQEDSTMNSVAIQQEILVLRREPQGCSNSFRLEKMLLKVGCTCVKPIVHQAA

Substance “anti-mouse IL-17A antibody 50104 (R&D Systems)” registered a decrease in CXCL1 production by MLE-12 cells induced by 200 ng/ml mIL-17F/IL-17A with 80 µg/ml antibody of 85%.
